The target in test [1] is AausFP2 (His-tag removed with proteinase K, crystallised) (Aequorea cf. australis). Briefly: crystal structure; AausFP2 at 51 mg/ml, hanging drop, 14%-24% PEG 3350 trisodium citrate, 0.2 M sodium chloride, 0.1 M HEPES pH 7.3-8.2; 1 molecule in the asymmetric unit; interfaces analysed with PISA.
The target in test [2] is AausFP1 (His-tag cleaved, crystallised) (Aequorea cf. australis). Briefly: crystal structure; AausFP1 at 40 mg/ml, hanging drop, 0.7-1.3 M trisodium citrate, 0.2 M sodium chloride, 0.1 M Tris pH 6.5-8.0; 4 molecules in the asymmetric unit; interfaces analysed with PISA.

2 substances from paper PMC7660908 can be followed below.

On to “AausFP2 (His-tag removed with proteinase K, crystallised) (natural protein)”, for which, in test [1], the stoichiometry N – broadly, the number of molecules, sites or subunits per partner or assembly – was 2. Regarding “AausFP1 (His-tag cleaved, crystallised) (natural protein)”, the stoichiometry N in test [2] worked out at 2.
